Patent publication US20180282410A1 (Hoffmann-La Roche, published 2018)
Like-named read-outs stand apart in the source and are kept apart here.

T1: full-length human Robo 4 (on cells) (human, UniProt Q8WZ75 28-1007)
T1 sequence: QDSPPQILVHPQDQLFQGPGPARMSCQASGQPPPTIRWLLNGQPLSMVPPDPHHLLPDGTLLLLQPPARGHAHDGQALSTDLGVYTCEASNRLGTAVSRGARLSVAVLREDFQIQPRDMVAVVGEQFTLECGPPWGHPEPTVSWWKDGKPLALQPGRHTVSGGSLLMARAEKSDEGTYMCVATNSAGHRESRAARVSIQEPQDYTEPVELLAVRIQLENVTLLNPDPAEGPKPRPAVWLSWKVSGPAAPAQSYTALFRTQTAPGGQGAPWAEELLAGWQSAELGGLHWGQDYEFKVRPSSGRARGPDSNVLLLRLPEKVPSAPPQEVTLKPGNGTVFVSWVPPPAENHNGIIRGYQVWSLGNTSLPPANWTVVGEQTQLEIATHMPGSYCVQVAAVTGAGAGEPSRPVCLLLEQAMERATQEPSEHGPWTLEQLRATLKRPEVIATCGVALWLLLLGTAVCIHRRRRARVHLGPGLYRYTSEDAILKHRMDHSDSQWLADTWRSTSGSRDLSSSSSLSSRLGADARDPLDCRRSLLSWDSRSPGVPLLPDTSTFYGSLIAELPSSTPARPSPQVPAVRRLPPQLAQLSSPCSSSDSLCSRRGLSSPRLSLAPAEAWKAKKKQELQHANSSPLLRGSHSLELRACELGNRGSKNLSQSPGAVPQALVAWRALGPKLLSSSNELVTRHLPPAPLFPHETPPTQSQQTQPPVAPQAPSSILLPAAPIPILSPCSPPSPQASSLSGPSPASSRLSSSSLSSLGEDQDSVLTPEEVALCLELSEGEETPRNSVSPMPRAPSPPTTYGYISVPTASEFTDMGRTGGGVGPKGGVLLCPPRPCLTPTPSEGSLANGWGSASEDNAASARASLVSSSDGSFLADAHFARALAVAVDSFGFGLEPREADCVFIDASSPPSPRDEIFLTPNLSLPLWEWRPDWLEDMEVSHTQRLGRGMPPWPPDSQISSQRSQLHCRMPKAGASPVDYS

T2: mouse Robo 4 on MS-1 mouse endothelial cells (mouse, UniProt Q8C310 28-1012)
T2 sequence: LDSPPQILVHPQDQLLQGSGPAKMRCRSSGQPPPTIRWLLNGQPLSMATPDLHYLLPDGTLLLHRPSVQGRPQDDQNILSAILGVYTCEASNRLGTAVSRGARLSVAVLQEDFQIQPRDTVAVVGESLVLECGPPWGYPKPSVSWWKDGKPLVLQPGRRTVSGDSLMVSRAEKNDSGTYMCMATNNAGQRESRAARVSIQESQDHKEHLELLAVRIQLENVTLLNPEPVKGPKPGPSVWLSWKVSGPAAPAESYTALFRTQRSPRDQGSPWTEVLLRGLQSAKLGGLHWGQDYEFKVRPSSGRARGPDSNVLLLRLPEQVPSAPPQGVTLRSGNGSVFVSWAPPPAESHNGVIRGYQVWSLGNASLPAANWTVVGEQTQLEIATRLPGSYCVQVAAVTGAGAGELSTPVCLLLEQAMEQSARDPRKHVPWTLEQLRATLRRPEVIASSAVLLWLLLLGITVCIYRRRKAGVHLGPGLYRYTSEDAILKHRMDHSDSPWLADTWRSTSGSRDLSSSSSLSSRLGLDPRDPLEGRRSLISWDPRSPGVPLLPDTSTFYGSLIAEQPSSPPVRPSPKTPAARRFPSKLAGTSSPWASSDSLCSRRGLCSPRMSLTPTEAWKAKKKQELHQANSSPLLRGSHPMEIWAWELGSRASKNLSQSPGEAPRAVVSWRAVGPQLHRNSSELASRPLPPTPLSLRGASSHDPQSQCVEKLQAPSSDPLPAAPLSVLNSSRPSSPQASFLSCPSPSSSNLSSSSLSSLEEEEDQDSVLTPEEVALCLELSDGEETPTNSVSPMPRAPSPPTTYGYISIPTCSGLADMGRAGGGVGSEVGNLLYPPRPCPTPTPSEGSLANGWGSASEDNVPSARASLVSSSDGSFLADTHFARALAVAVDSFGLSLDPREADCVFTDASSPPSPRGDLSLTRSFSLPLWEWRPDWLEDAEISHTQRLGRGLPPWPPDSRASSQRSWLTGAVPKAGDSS

B1: Molecule J, 1+1 Fab-CrossFab (VH/VL exchange in CD3 binder, CD3 binder V9, Robo 4 binder 01F05) (bispecific antibody)
chain 1: QVQLKQSGAELVKPGASVKISCKTSVYTFTYGYMHWVEQKPGQGLEWIGRIDPDSGNSMYNQKFQGRATLTRDKSSSTVYMELRSLTSEDSAVYYCARSMRYSGYRDYALDLWGQGTQVTVSSASTKGPSVFPLAPSSKSTSGGTAALGCLVKDYFPEPVTVSWNSGALTSGVHTFPAVLQSSGLYSLSSVVTVPSSSLGTQTYICNVNHKPSNTKVDKKVEPKSCDGGGGSGGGGSDIQMTQSPSSLSASVGDRVTITCRASQDIRNYLNWYQQKPGKAPKLLIYYTSRLESGVPSRFSGSGSGTDYTLTISSLQPEDFATYYCQQGNTLPWTFGQGTKVEIKSSASTKGPSVFPLAPSSKSTSGGTAALGCLVKDYFPEPVTVSWNSGALTSGVHTFPAVLQSSGLYSLSSVVTVPSSSLGTQTYICNVNHKPSNTKVDKKVEPKSC
chain 2: QLVLTQSPSASASLGASVKLTCTLSSQHSSYGITWLQQHPDKAPKYVMYLKSDGSHTKGADIPDRFSGSSSGVHRYLSISNVQPEDEAIYFCVTYDSTHVFGSGTQLTVLGQPKAAPSVTLFPPSSEELQANKATLVCLISDFYPGAVTVAWKADSSPVKAGVETTTPSKQSNNKYAASSYLSLTPEQWKSHRSYSCQVTHEGSTVEKTVAPTECS
chain 3: EVQLVESGGGLVQPGGSLRLSCAASGYSFTGYTMNWVRQAPGKGLEWVALINPYKGVSTYNQKFKDRFTISVDKSKNTAYLQMNSLRAEDTAVYYCARSGYYGDSDWYFDVWGQGTLVTVSSASVAAPSVFIFPPSDEQLKSGTASVVCLLNNFYPREAKVQWKVDNALQSGNSQESVTEQDSKDSTYSLSSTLTLSKADYEKHKVYACEVTHQGLSSPVTKSFNRGEC
B2: Molecule K, 1+1 Fab-CrossFab (VH/VL exchange in CD3 binder, CD3 binder 2C11, Robo 4 binder 01F05) (bispecific antibody)
chain 1: DIQMTQSPSSLPASLGDRVTINCQASQDISNYLNWYQQKPGKAPKLLIYYTNKLADGVPSRFSGSGSGRDSSFTISSLESEDIGSYYCQQYYNYPWTFGPGTKLEIKSSASTKGPSVFPLAPSSKSTSGGTAALGCLVKDYFPEPVTVSWNSGALTSGVHTFPAVLQSSGLYSLSSVVTVPSSSLGTQTYICNVNHKPSNTKVDKKVEPKSCGGGGSGGGGSQVQLKQSGAELVKPGASVKISCKTSVYTFTYGYMHWVEQKPGQGLEWIGRIDPDSGNSMYNQKFQGRATLTRDKSSSTVYMELRSLTSEDSAVYYCARSMRYSGYRDYALDLWGQGTQVTVSSASTKGPSVFPLAPSSKSTSGGTAALGCLVKDYFPEPVTVSWNSGALTSGVHTFPAVLQSSGLYSLSSVVTVPSSSLGTQTYICNVNHKPSNTKVDKKVEPKSCD
chain 2: B1 chain 2
chain 3: EVQLVESGGGLVQPGKSLKLSCEASGFTFSGYGMHWVRQAPGRGLESVAYITSSSINIKYADAVKGRFTVSRDNAKNLLFLQMNILKSEDTAMYYCARFDWDKNYWGQGTMVTVSSASVAAPSVFIFPPSDEQLKSGTASVVCLLNNFYPREAKVQWKVDNALQSGNSQESVTEQDSKDSTYSLSSTLTLSKADYEKHKVYACEVTHQGLSSPVTKSFNRGEC
B3: Molecule B, 1+1 CrossFab-IgG (VH/VL exchange in CD3 binder, CD3 binder V9, Robo 4 binder 01F05) (bispecific antibody)
chain 1: not shown
chain 2: B1 chain 2
chain 3: B1 chain 3
chain 4: DKTHTCPPCPAPEAAGGPSVFLFPPKPKDTLMISRTPEVTCVVVDVSHEDPEVKFNWYVDGVEVHNAKTKPREEQYNSTYRVVSVLTVLHQDWLNGKEYKCKVSNKALGAPIEKTISKAKGQPREPQVCTLPPSRDELTKNQVSLSCAVKGFYPSDIAVEWESNGQPENNYKTTPPVLDSDGSFFLVSKLTVDKSRWQQGNVFSCSVMHEALHNHYTQKSLSLSPGK
B4: 01E06 hybridoma clone (Armenian hamster IgG, supernatant) (antibody, V domains shown)
VH: EVQLVESGGGLSQPGNSLKLSCEASGFTFRNYDMSWVRQAPGKGLEWVAYISSGGGPIYYVDAVKGRFTISRDNAKNLLFLQMNNLRSEDTAVYYCARDLADIGVFDYWGQGTMVTVSS
VL: DFKMTQSPDILSPSLGESVTITCQSSQNIYSNLAWYQQKPGEHPKLLIYTASILADGIPSRFTGSGSGTQFSLKISSLQPDDVANYYCQQYVYYRTFGPGTKLEIK
B5: 01F05 hybridoma clone (Armenian hamster IgG, supernatant) (antibody, V domains shown)
VH: QVQLKQSGAELVKPGASVKISCKTSVYTFTYGYMHWVEQKPGQGLEWIGRIDPDSGNSMYNQKFQGRATLTRDKSSSTVYMELRSLTSEDSAVYYCARSMRYSGYRDYALDLWGQGTQVTVSS
VL: QLVLTQSPSASASLGASVKLTCTLSSQHSSYGITWLQQHPDKAPKYVMYLKSDGSHTKGADIPDRFSGSSSGVHRYLSISNVQPEDEAIYFCVTYDSTHVFGSGTQLTVLG
B6: 01F09 hybridoma clone (Armenian hamster IgG, supernatant) (antibody, V domains shown)
VH: QIQLQESGPGLVKPSQSLSLTCSVTGYSISSGSLWTWIRQFPGNNLEWMGYISYAGGIDYNPSLTSRISITRDTSRNQFFLQLESVTTQDTATYYCATPGGYPFHFDYWGQGTMVTVSS
VL: QPVLTQSPSASASLGASVKLTCTLNSQFSTYNIGWYQQHRDKPPKYVMFVKGDGGHSKADGIPDRFSGSSSGADRYLTISNIQAEDEAIYFCGADYNNAGQYGCVFGSGTHFTVLG

Experiments:
[1] = biological target: T1, full-length human Robo 4 (on cells); assay: cell-based or functional assay
[2] = biological target: T1, full-length human Robo 4 (on cells); assay: cell-based or functional assay; remark: listed apart in the source
[3] = biological target: T2, mouse Robo 4 on MS-1 mouse endothelial …; assay: cell-based or functional assay
[4] = biological target: T1, full-length human Robo 4 (on cells); assay: cell-based or functional assay; remark: listed apart in the source
[5] = biological target: T2, mouse Robo 4 on MS-1 mouse endothelial …; assay: cell-based or functional assay; remark: listed apart in the source
[6] = biological target: T2, mouse Robo 4 on MS-1 mouse endothelial …; assay: cell-based or functional assay; remark: listed apart in the source
[7] = biological target: T3, recombinant human Robo1 antigen (human, UniProt Q9Y6N7 59-886, limits assumed); assay: ELISA, hybridoma supernatant
T3 construct: limits of the construct and tags are not described in the text; also called human Robol
T3 sequence (Q9Y6N7 other isoform, or with tags, fused parts or gaps limits assumed): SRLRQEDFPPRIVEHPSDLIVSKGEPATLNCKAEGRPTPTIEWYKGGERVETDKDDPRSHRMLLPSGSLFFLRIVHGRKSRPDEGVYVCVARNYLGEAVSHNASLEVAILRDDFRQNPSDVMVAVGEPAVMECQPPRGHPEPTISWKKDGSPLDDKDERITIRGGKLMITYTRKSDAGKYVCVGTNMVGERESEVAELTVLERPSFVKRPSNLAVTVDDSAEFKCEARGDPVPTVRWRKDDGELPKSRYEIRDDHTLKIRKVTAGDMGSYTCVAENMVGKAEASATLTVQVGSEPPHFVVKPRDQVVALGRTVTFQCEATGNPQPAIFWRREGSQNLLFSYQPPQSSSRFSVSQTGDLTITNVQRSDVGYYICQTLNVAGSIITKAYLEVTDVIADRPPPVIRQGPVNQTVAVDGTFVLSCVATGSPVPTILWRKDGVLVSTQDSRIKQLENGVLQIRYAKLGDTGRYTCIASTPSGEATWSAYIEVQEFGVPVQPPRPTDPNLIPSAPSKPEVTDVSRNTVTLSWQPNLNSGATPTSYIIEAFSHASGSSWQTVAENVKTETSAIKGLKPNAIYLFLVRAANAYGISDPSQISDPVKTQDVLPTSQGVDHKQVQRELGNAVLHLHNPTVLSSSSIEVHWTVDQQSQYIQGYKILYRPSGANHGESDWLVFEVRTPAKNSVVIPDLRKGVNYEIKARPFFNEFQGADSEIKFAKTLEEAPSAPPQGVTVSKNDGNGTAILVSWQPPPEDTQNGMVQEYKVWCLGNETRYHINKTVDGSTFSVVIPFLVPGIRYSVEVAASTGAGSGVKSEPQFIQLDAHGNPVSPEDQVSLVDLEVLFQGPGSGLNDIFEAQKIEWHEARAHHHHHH

Binder | EC50 of T-cell mediated killing of HUVECs (LDH release, human PBMCs, E:T 10:1), 24 h [1] | EC50 of T-cell mediated killing of HUVECs (LDH release, human PBMCs, E:T 10:1), 48 h [1] | EC50 of T-cell mediated killing of MS-1 cells (LDH release, human pan T cells, E:T 5:1, 17 h) [3] | EC50 of T-cell mediated killing of HUVECs (LDH release, human pan T cells, E:T 5:1, 22 h) [4] | binding result [7] | also measured
B1 | 0.204 nM | 0.127 nM | 0.004 nM | 0.026 nM | – | EC50 of T-cell mediated killing of HUVECs (LDH release, human PBMCs, E:T 10:1), 24 h [2]: 0.105 nM; EC50 of T-cell mediated killing of HUVECs (LDH release, human PBMCs, E:T 10:1), 48 h [2]: 0.0472 nM; EC50 of T-cell mediated killing of MS-1 cells (LDH release, human PBMCs, E:T 10:1), 24 h [5]: 0.294 nM; EC50 of T-cell mediated killing of MS-1 cells (LDH release, human PBMCs, E:T 10:1), 48 h [5]: 0.106 nM
B2 | – | – | – | – | – | EC50 of T cell mediated killing of MS-1 cells by murine splenocytes (LDH release, E:T 10:1, 48 and 72 h) [6]: 1.3 nM
B3 | 1.61 nM | 1.55 nM | 0.115 nM | 0.164 nM | – | –
B4 | – | – | – | – | no binding | –
B5 | – | – | – | – | no binding | –
B6 | – | – | – | – | no binding | –
